This is an account of results in patent US20230340111A1 (published 2023).

Substitutions are numbered along the chain they refer to. Names may count otherwise.

The target in test [1] is T1, human FOLR1 expressed on SKOV-3 ovarian carcinoma cells (human, UniProt P15328 25-234).
T1 construct: Naturally expressed receptor on SKOV-3 cells; also called human FOLR1pos SKOV-3 cancer cells; human FOLR1-expressing cell line SKOV-3
Description: saturation binding of 99mTc-labelled His6-tagged VHH on SKOV-3 cells (0-300 nM); non-specific binding by 100-fold unlabelled VHH. The method, then:
After quality control (> 95%), human FOLR1^pos SKOV-3 cancer cells were incubated with serial dilutions with concentrations ranging from 0 to 300 nM of the different ^99mTc-labelled VHHs. A 100-fold excess of the corresponding unlabeled VHH was added in parallel to saturate the human FOLR1 receptors expressed on cancer cells, to assess non-specific binding.

Test [2] deals with T2, human FOLR1 recombinant protein (extracellular domain of human folate receptor alpha) (human, UniProt P15328 25-233).
T2 construct: Bought recombinant protein (Sino Biological); also called hFOLR1; FR-alpha
Description: SPR (Biacore T200), human FOLR1 immobilized on CM5, His6-tagged VHH as analyte, 1:1 fit. The protocol:
The kinetic parameters of antigen binding by purified VHHs were determined via surface plasmon resonance with a Biacore T200 instrument (GE Healthcare). The human FOLR1 recombinant protein (Sino Biological) was immobilized in 10 mM sodium acetate, pH 5.5 on a CM5 chip (GE Healthcare) via amine coupling chemistry to 500 RU. His₆-tagged VHHs were analyzed in a twofold serial dilution in HBS (125 nM-0.488 nM for VHHs A4 and A5; 10 nM-0.039 nM for VHHs A1, A2 and A3) with an analyte flow rate of 30 µl/min. The association phase took 180 s (A4-A5) or 450 s (A1-A3) and the dissociation phase 600 s (A4-A5) or 900 s (A1-A3). Regeneration was done by a single injection of 50 mM glycine-HCl, pH 2.5, 2 M MgCl₂ for 30 s at 30 µl/min, followed by 120 s stabilization. Binding curves were fitted using a ‘1:1 (antigen:analyte)’ binding model in Biacore T200 evaluation software.
(Surface plasmon resonance follows binding to a sensor surface in real time, without labels.)

The target in test [3] is T2, human FOLR1 recombinant protein …. Kind of test: SPR (Biacore T200), single cycle kinetics, His6-tagged VHH immobilized on CM5, human FOLR1 as analyte, 1:1 fit. The protocol:
The kinetic parameters of antigen binding for purified VHHs A1, A2 and A3 were determined via surface plasmon resonance with a Biacore T200 instrument (GE Healthcare) using single cycle kinetics mode. While example 4d provides a first and preferred way of assessing the kinetic parameters of antigen binding for VHHs using surface plasmon resonance, this example provides an alternative setup for using surface plasmon resonance to assess the kinetic parameters of antigen binding, inverting the analyte and immobilized ligand. His₆-tagged VHH A1, A2 or A3 was immobilized in 10 mM sodium acetate, pH 5.5 on a CM5 chip (GE Healthcare) via amine coupling chemistry to 160 RU. The human FOLR1 recombinant protein (Sino Biological) was analyzed in a threefold serial dilution in HBS (38.5 nM-0.47 nM) with an analyte flow rate of 30 µl/min. The association phase took 180 s for every concentration and the dissociation phase 900 s. Regeneration was done by a single injection of 50 mM glycine-HCl, pH 2.5, 2 M MgCl2 for 30 s at 30 µl/min, followed by 120 s stabilization. Binding curves were fitted using a ‘1:1 (antigen:analyte)’ binding model in Biacore T200 evaluation software.

Test [4] has the same target. Description: SPR dual injection on immobilized human FOLR1, 250 nM; competitor (1st VHH, saturating) A1; by the legend the value is of the 2nd VHH. The method, then: (§1) Competitive binding characteristics of His₆-tagged VHHs were determined via surface plasmon resonance with a Biacore T200 instrument (GE Healthcare). Immobilization of human FOLR1 recombinant protein (Sino Biological) and regeneration were performed as described below for kinetic measurements.
(§2) Table 8: Side-by-side comparison of His₆-tagged VHHs A1, A2, A3, A4, A5 for binding to human FOLR1 to identify competitive binding characteristics. Binding was measured in surface plasmon resonance with immobilized human FOLR1 recombinant protein as the ligand. After saturation of the ligand with VHH 1 an equimolar mixture of VHH 1 and VHH 2 was injected. Percentages express the loss in response level of VHH 2, relative to the response when VHH 2 was injected alone.

Test [5] has the same target. Description: SPR dual injection on immobilized human FOLR1, 250 nM; competitor (1st VHH, saturating) A4; by the legend the value is of the 2nd VHH. The method, then:
as §1, §2

Test [6] shares this target. Kind of test: SPR dual injection on immobilized human FOLR1, 250 nM; competitor (1st VHH, saturating) A5; by the legend the value is of the 2nd VHH. The method, then:
as §1, §2

Test [7] has as its target T3, human folate receptor beta (FOLR2), extracellular domain, recombinant (human, UniProt P14207 17-228, limits assumed).
T3 construct: extracellular domain; Bought protein; also called human FOLR2
Kind of test: ELISA, coated recombinant protein, HA-tagged VHH in bacterial extract. The protocol: (§3) The day before, 0.1 µg recombinant protein at a concentration of 1 µg/mL in 100 mM NaHCO3, pH 8.2 was coated in a 96-well ELISA plate (Nunc MaxiSorp). Per VHH clone also a blank coated well was foreseen (only buffer). The wells were overcoated with protein-free T20 (PBS) blocking buffer (Pierce). After washing with PBS, pH7.4, 0.05% Tween, VHH-containing bacterial extract was added to every well. Binding of HA-tagged VHHs was detected by using mouse anti-HA.11 epitope tag (clone 16B12, Biolegend) as the primary Ab and goat anti-mouse IgG (whole molecule) alkaline phosphatase conjugate (Sigma-Aldrich) as the secondary Ab, with thorough washing with PBS, pH 7.4, 0.05% Tween in between. Signals were developed using phosphatase substrate (Sigma-Aldrich) in AP blot buffer (100 mM NaCl, 50 mM MgCl2, 100 mM Tris, pH 9.5). The absorbance was determined at 405 nm using an absorbance microplate reader (Molecular Devices). Per clone the ratio was determined between the absorbance in the antigen-coated well versus the well without antigen.
A general note: In an ELISA, binding on a coated surface is turned into a signal by an enzyme label.

Test [8] deals with T4, human folate receptor gamma (FOLR3), recombinant (human, UniProt P41439 23-245, limits assumed).
T4 construct: extracellular domain; Bought protein; also called human FOLR3
Described as above. The protocol: as §3

The target in test [9] is human FOLR1 recombinant protein (extracellular domain of human folate receptor alpha) (human) (UniProt P15328). Description: ELISA; coated recombinant protein, HA-tagged VHH in bacterial extract, anti-HA detection; A405 antigen well / blank well.
The target in test [10] is T3, human folate receptor beta (FOLR2), …. The test is described as above. The protocol:
as §3

The target in test [11] is T4, human folate receptor gamma (FOLR3), …. Described as above. The protocol:
as §3

Test [12] addresses T1, human FOLR1 expressed on SKOV-3 ovarian …. Kind of test: saturation binding of 131I-labelled untagged VHH on SKOV-3 cells. The protocol: In a first part, their in vitro behaviour was assessed by means of investigating their cellular binding and retention over time. The binding potential of the resulting radioconjugates was assessed to confirm that this was not affected by the introduction of ¹³¹I-SGMIB into the amino acid sequence of the different VHHs. To this, human FOLR1^pos SKOV-3 cancer cells were incubated with serial dilutions with concentrations ranging from 0 to 300 nM of the different ¹³¹I-labelled, His₆ tagged VHHs. A 100-fold excess of the corresponding unlabeled VHH was added in parallel to saturate the human FOLR1 receptors expressed on cancer cells, to assess non-specific binding.
A1 and A2 parental untagged VHH’s and derivatives were radiolabeled with theranostic isotope ¹³¹I, as described in example 3, and subjected to saturation binding studies as described in example 6.

For test [13] the target is unchanged. Description: cellular retention on SKOV-3 cells: 10 nM 131I-VHH 1 h at 4 C, then up to 24 h at 37 C; membrane-bound plus internalized fraction. The protocol: The in vitro cellular retention of the different His₆- and untagged ¹³¹I-labeled VHHs was assessed on the same cancer cells. In this particular case, human FOLR1^pos SKOV-3 cancer cells were incubated with 10 nM ¹³¹I-labelled VHHs for 1h at 4° C., after which the unbound fraction was collected. A 100-fold excess of the corresponding unlabeled VHH to assess non-specific binding. Next, the cells were incubated with fresh medium up to 24 h at 37° C., after which the dissociated fraction was collected. Afterwards, the cells were washed with 0.05 M glycine pH 2.8 to collect the membrane-bound fraction. Finally, cells were solubilized with 1 M NaOH at room temperature to collect the internalized fraction. The sum of the membrane-bound and internalized fractions corresponds to the total cell-associated fraction.

T2 sequence (P15328 25-233): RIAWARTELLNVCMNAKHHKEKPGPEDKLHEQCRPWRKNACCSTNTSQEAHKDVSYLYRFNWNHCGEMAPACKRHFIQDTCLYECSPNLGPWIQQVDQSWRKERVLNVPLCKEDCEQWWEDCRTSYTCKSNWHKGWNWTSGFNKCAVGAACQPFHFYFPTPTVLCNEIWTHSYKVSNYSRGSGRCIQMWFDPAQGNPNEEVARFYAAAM
T1 sequence (P15328 25-234 limits assumed): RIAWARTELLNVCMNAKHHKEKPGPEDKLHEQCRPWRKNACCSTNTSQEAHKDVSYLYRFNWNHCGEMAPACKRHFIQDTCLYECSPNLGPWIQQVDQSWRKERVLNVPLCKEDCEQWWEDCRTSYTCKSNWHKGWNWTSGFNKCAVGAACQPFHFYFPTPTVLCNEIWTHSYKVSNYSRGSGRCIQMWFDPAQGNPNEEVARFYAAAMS
T4 sequence (P41439 23-245 limits assumed): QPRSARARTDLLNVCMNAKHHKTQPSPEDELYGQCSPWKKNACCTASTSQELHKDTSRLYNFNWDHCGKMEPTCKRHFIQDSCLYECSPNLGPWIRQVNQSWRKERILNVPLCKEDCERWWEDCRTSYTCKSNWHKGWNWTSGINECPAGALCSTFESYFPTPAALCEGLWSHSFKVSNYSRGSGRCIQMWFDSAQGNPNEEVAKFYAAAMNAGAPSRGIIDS
T3 sequence (P14207 17-228 limits assumed): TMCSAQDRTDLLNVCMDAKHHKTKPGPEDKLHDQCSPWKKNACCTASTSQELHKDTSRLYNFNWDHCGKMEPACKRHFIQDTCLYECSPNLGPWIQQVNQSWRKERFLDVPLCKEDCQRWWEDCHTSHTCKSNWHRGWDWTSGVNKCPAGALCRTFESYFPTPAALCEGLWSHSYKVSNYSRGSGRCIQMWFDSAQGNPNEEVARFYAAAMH
Chain of human FOLR1 recombinant protein (extracellular domain of human folate receptor alpha) (human) (P15328 25-233): as the sequence (P15328 25-233) above

B1: 99mTc-labeled His6-tagged VHH A1 (VHH)
VHH: DVQLVESGGGLVQPGGSLRLSCAASESIFSRNHMSWYRQAPGKQRELAAIITSDGNTNYPDSVKGRFTISRDNAKNTVYLQMNSLKPEDTAVYYCNTFGRSVAGFYDYWGQGTQVTVSS
modifications: [99mTc(H2O)3(CO)3] at the His6-tail
notes: also called 99mTc-A1; 99mTc-VHH A1
As usually defined, the EC50 is the midpoint of the concentration-response curve. Read a high EC50 as a need for much substance. B1 yielded an EC50 in [1] of 1 nM.

B2: His6-tagged variant of VHH A3 (VHH)
VHH: DVQLVESGGGLVQAGGSLRLSCGVSGNMFSMNLMGWYRQPPGKERDWVAVITKDGSTNYADSVKGRFTISRDNAKNTVSLQMNSLKPEDTAVYYCNVQDGSGWIRAWGWDWGQGTQVTVSS
notes: Purified, unlabelled; also called A3 His6-tag
For orientation: Kd means the constant that tells how readily two partners part at equilibrium. One may read the koff as a measure of how fast the partners let go of each other. As a reminder, the kon is a measure of how fast the partners come together. Consider B2, for which the Kd is 0.92 nM in [2] and 1.9 nM in test [3]. The results for the dissociation rate constant (koff) in [2] and in [3] were 0.0011 s⁻¹ and 0.00063 s⁻¹, respectively. In addition, the kon was 1.2e+06 M⁻¹ s⁻¹ in test [2] and 330000 M⁻¹ s⁻¹ in test [3]. Also, the “loss in response level of VHH 2 relative to VHH 2 injected alone” value is -97% in test [4], -97% in test [5] and -89% in test [6].

B3: 99mTc-labeled His6-tagged VHH A3 (VHH)
VHH: B2 VHH
modifications: [99mTc(H2O)3(CO)3] at the His6-tail
notes: also called 99mTc-A3
B3: in test [1], the EC50 amounted to 3.3 nM.

B4: 99mTc-labeled His6-tagged VHH A5 (VHH)
VHH: B2 VHH with M28I, D46E, V50L, A60E, V97A
modifications: [99mTc(H2O)3(CO)3] at the His6-tail
notes: also called 99mTc-A5
B4 registered an EC50 in [1] of 28.6 nM. This EC50 is about 8.7-fold higher than that of the molecule before.

B5: HA-tagged variant of VHH A2 (VHH)
VHH: QVQLQESGGGLVQAGGSLRLSCAADEMKFSNYDLAWYRRAPGKQRELAAIITSGGSTNYPDSVKGRFTISRDNAKNTVYLEMNSLKPEDTAVYYCNALRPWPQFSDYWGQGTQVTVSS
notes: Used as VHH-containing bacterial (periplasmic) extract in ELISA; also called A2 HA-tag
In the case of B5, the binding result in [7] and in test [8] was “no binding” each time. Besides, the signal-to-background ratio in test [9] was above 20; in test [10], around 1; in test [11], around 1.

B6: 99mTc-labeled His6-tagged VHH A2 (VHH)
VHH: B5 VHH with Q1D, Q5V
modifications: [99mTc(H2O)3(CO)3] at the His6-tail
notes: also called 99mTc-A2; 99mTc-VHH A2
As for B6, the midpoint of the response in [1], the EC50, lay at 1.1 nM.

B7: 131I-labeled untagged A2-M28T-E90Q (VHH)
VHH: B5 VHH with Q1D, Q5V, M27T, E81Q
modifications: [131I]SGMIB conjugated to lysine side-chain amine groups
As to B7, a half-maximal effect in test [12] (EC50) was put at 4.8 nM.

B8: 131I-labeled untagged A2-M28A-E90Q (VHH)
VHH: B5 VHH with Q1D, Q5V, M27A, E81Q
modifications: [131I]SGMIB conjugated to lysine side-chain amine groups
As to B8, a half-maximal response in test [12] (EC50) required 4.1 nM.

B9: 131I-labeled untagged VHH A2 (VHH)
VHH: B5 VHH with Q1D, Q5V
modifications: [131I]SGMIB conjugated to lysine side-chain amine groups
Molecule B9 returned an EC50 in [12] of 2.4 nM. In [13], the “cell-associated fraction of initial bound activity after 24 h” value is around 60%.

B10: 99mTc-labeled His6-tagged VHH A4 (VHH)
VHH: DVQLVESGGGLARAGGSLRLSCAASGRAFSSTYAMGWFRQAPGKEREFVADINWSEGSPMYIDSVKDRFTISRDNARNSLYLQMNSLKSEDTAVYYCAARRFGQGYEYWGQGTQVTVSS
modifications: [99mTc(H2O)3(CO)3] at the His6-tail
notes: also called 99mTc-A4
B10: it took 3.8 nM to reach a half-maximal effect in test [1] (EC50).
